Source: patent US10525110B2, “Methods for inducing partial apoptosis using caspase polypeptides” (Bellicum Pharmaceuticals, Inc., priority 2013, dated 2020)
Entries after “also recorded” stand apart in the source; their conditions may differ.

B1: F404Y: chimeric modified caspase-9 polypeptide (protein)
chain: VDGFGDVGALESLRGNADLAYILSMEPCGHCLIINNVNFCRESGLRTRTGSNIDCEKLRRRFSSLHFMVEVKGDLTAKKMVLALLELARQDHGALDCCVVVILSHGCQASHLQFPGAVYGTDGCPVSVEKIVNIFNGTSCPSLGGKPKLFFIQACGGEQKDHGFEVASTSPEDESPGSNPEPDATPFQEGLRTFDQLDAISSLPTPSDIFVSYSTFPGFVSWRDPKSGSWYVETLDDIFEQWAHSEDLQSLLLRVANAVSVKGIYKQMPGCYNFLRKKLFFKTSASRA
B2: S144A: chimeric modified caspase-9 polypeptide (protein)
chain: VDGFGDVGALEALRGNADLAYILSMEPCGHCLIINNVNFCRESGLRTRTGSNIDCEKLRRRFSSLHFMVEVKGDLTAKKMVLALLELARQDHGALDCCVVVILSHGCQASHLQFPGAVYGTDGCPVSVEKIVNIFNGTSCPSLGGKPKLFFIQACGGEQKDHGFEVASTSPEDESPGSNPEPDATPFQEGLRTFDQLDAISSLPTPSDIFVSYSTFPGFVSWRDPKSGSWYVETLDDIFEQWAHSEDLQSLLLRVANAVSVKGIYKQMPGCFNFLRKKLFFKTSASRA
B3: D330S: chimeric modified caspase-9 polypeptide (protein)
chain: VDGFGDVGALESLRGNADLAYILSMEPCGHCLIINNVNFCRESGLRTRTGSNIDCEKLRRRFSSLHFMVEVKGDLTAKKMVLALLELARQDHGALDCCVVVILSHGCQASHLQFPGAVYGTDGCPVSVEKIVNIFNGTSCPSLGGKPKLFFIQACGGEQKDHGFEVASTSPEDESPGSNPEPDATPFQEGLRTFDQLSAISSLPTPSDIFVSYSTFPGFVSWRDPKSGSWYVETLDDIFEQWAHSEDLQSLLLRVANAVSVKGIYKQMPGCFNFLRKKLFFKTSASRA
B4: D330V: chimeric modified caspase-9 polypeptide (protein)
chain: VDGFGDVGALESLRGNADLAYILSMEPCGHCLIINNVNFCRESGLRTRTGSNIDCEKLRRRFSSLHFMVEVKGDLTAKKMVLALLELARQDHGALDCCVVVILSHGCQASHLQFPGAVYGTDGCPVSVEKIVNIFNGTSCPSLGGKPKLFFIQACGGEQKDHGFEVASTSPEDESPGSNPEPDATPFQEGLRTFDQLVAISSLPTPSDIFVSYSTFPGFVSWRDPKSGSWYVETLDDIFEQWAHSEDLQSLLLRVANAVSVKGIYKQMPGCFNFLRKKLFFKTSASRA
B5: F406L: chimeric modified caspase-9 polypeptide (protein)
chain: VDGFGDVGALESLRGNADLAYILSMEPCGHCLIINNVNFCRESGLRTRTGSNIDCEKLRRRFSSLHFMVEVKGDLTAKKMVLALLELARQDHGALDCCVVVILSHGCQASHLQFPGAVYGTDGCPVSVEKIVNIFNGTSCPSLGGKPKLFFIQACGGEQKDHGFEVASTSPEDESPGSNPEPDATPFQEGLRTFDQLDAISSLPTPSDIFVSYSTFPGFVSWRDPKSGSWYVETLDDIFEQWAHSEDLQSLLLRVANAVSVKGIYKQMPGCFNLLRKKLFFKTSASRA
B6: D330N: chimeric modified caspase-9 polypeptide (protein)
chain: VDGFGDVGALESLRGNADLAYILSMEPCGHCLIINNVNFCRESGLRTRTGSNIDCEKLRRRFSSLHFMVEVKGDLTAKKMVLALLELARQDHGALDCCVVVILSHGCQASHLQFPGAVYGTDGCPVSVEKIVNIFNGTSCPSLGGKPKLFFIQACGGEQKDHGFEVASTSPEDESPGSNPEPDATPFQEGLRTFDQLNAISSLPTPSDIFVSYSTFPGFVSWRDPKSGSWYVETLDDIFEQWAHSEDLQSLLLRVANAVSVKGIYKQMPGCFNFLRKKLFFKTSASRA
B7: F404W: chimeric modified caspase-9 polypeptide (protein)
chain: VDGFGDVGALESLRGNADLAYILSMEPCGHCLIINNVNFCRESGLRTRTGSNIDCEKLRRRFSSLHFMVEVKGDLTAKKMVLALLELARQDHGALDCCVVVILSHGCQASHLQFPGAVYGTDGCPVSVEKIVNIFNGTSCPSLGGKPKLFFIQACGGEQKDHGFEVASTSPEDESPGSNPEPDATPFQEGLRTFDQLDAISSLPTPSDIFVSYSTFPGFVSWRDPKSGSWYVETLDDIFEQWAHSEDLQSLLLRVANAVSVKGIYKQMPGCWNFLRKKLFFKTSASRA
B8: D330G: chimeric modified caspase-9 polypeptide (protein)
chain: VDGFGDVGALESLRGNADLAYILSMEPCGHCLIINNVNFCRESGLRTRTGSNIDCEKLRRRFSSLHFMVEVKGDLTAKKMVLALLELARQDHGALDCCVVVILSHGCQASHLQFPGAVYGTDGCPVSVEKIVNIFNGTSCPSLGGKPKLFFIQACGGEQKDHGFEVASTSPEDESPGSNPEPDATPFQEGLRTFDQLGAISSLPTPSDIFVSYSTFPGFVSWRDPKSGSWYVETLDDIFEQWAHSEDLQSLLLRVANAVSVKGIYKQMPGCFNFLRKKLFFKTSASRA
B9: F406T: chimeric modified caspase-9 polypeptide (protein)
chain: VDGFGDVGALESLRGNADLAYILSMEPCGHCLIINNVNFCRESGLRTRTGSNIDCEKLRRRFSSLHFMVEVKGDLTAKKMVLALLELARQDHGALDCCVVVILSHGCQASHLQFPGAVYGTDGCPVSVEKIVNIFNGTSCPSLGGKPKLFFIQACGGEQKDHGFEVASTSPEDESPGSNPEPDATPFQEGLRTFDQLDAISSLPTPSDIFVSYSTFPGFVSWRDPKSGSWYVETLDDIFEQWAHSEDLQSLLLRVANAVSVKGIYKQMPGCFNTLRKKLFFKTSASRA

Experiments:
Activated T cells = assay: Control of proliferation of iCasp9-mutant-transduced T cells over 10 days; format: cell-based; details: AP1903 on days 0 and 4
Description: FIG. 63: iCasp9 mutants with lower sensitivity to AP1903 still control T cell proliferation in vitro. Activated T cells were transduced with retrovirus containing iCasp9 mutants and treated with AP1903 (arrow) on days 0 and 4 and subsequently enumerated for 10 days.

HEK293T/16 cells = assay: Secreted alkaline phosphatase (SEAP) reporter-based surrogate killing assay; format: cell-based, human; details: AP1903-independent SEAP activity, relative to wild type
Protocol: FIG. 45 provides an analysis of SEAP assays. To examine both basal signaling and AP1903 induced activity, […] early-passage HEK293T/16 cells were co-transfected with various amount of wildtype Caspase and 500 ng of an expression plasmid that uses an SRα promoter to drive SEAP, a marker for cell viability. […] of the mixture was seeded onto each well of a 96-well plate. 100-ul of AP1903 was added at least three hours post-transfection. After addition of AP1903 for at least 24 hours, 100-ul of supernatant was transferred to a 96-well plate and heat denatured at 68 ? C for 30 minutes to inactivate endogenous alkaline phosphatases. For the assay, 4-methylumbelliferyl phosphate substrate was hydrolyzed by SEAP to 4-methylumbelliferon, a metabolite that can be excited with 364 nm and detected with an emission filter of 448 nm. Since SEAP is used as a marker for cell viability, reduced SEAP reading corresponds with increased icaspase-9 activities.
(50A) To examine both basal signaling and AP1903-induced CaspaClDe activity, 10^6 early-passage HEK293T/17 cells were co-transfected with 2 μg of inducible caspase variants along with 500 ng of an expression plasmid using an SRα promoter to transcriptionally regulate SEAP, a surrogate marker for cell viability. 200-μl of the transfection mixture containing plasmids, GeneJammer and HEK293T/17 cells in IMDM+10% FBS (without antibiotics) was seeded into each well of a 96-well plate. To induce caspase activity, 22 μl of serially diluted AP1903 was added 24 hours post-transfection. (50B) To examine basal and AP1903 induced signaling, 100 μl of supernatant was harvested 48 hours post-treatment and heat-denatured at 68° C. for 1 hour to inactivate endogenous alkaline phosphatases. For the assay, 4-methylumbelliferyl phosphate (4-MUP) substrate was hydrolyzed by SEAP to 4-methylumbelliferon, a metabolite with peak excitation at 364 nm and peak emission at 448 nm. Since SEAP is used as a surrogate marker for cell viability, a reduced SEAP reading corresponds to increased caspase-9 activity.
Early passage HEK293T/16 cells (ATCC, Manassas, Va.) were maintained in IMDM, GlutaMAX™ (Life Technologies, Carlsbad, Calif.) supplemented with 10% FBS, 100 U/mL penicillin, and 100 […] until transfection in a humidified, 37° C., 5% CO2/95% air atmosphere. Cells in logarithmic-phase growth were transiently transfected with 800 ng to 2 μg of expression plasmid encoding iCasp9 mutants and 500 ng of an expression plasmid encoding SRα promoter driven SEAP per million cells in 15-mL conical tubes. […] GeneJammer® Transfection Reagent at a ratio of 3 μl per ug of plasmid DNA was used to transiently transfect HEK293T/16 cells in the absence of antibiotics. 100 μl or 2 mL of the transfection mixture was added to each well in 96-well or 6-well plate, respectively. For SEAP assays, log dilutions of AP1903 were added after a minimum 3-hour incubation post-transfection. For western blots, cells were incubated for 20 minutes with AP1903 (10 nM) before harvesting.
Twenty-four to forty-eight hours after AP1903 treatment, ˜100 μl of supernatants were harvested into a 96-well plate and assayed for SEAP activity as described. Briefly, after 65° C. heat denaturation for 45 minutes to reduce background caused by endogenous (and serum-derived) alkaline phosphatases that are sensitive to heat, 5 μl of supernatants was added to 95 μl of PBS and added to 100 μl of substrate buffer, containing 1 μl of 100 mM 4-methylumbelliferyl phosphate (4-MUP; Sigma, St. Louis, Mo.) re-suspended in 2 M diethanolamine. Hydrolysis of 4-MUP by SEAP produces a fluorescent […] with excitation/emission (355/460 nm), which can be easily measured. Assays were performed in black opaque 96-well plates to minimize fluorescence leakage between wells (FIG. 45).

Row | Molecule | control of T cell proliferation and survival within 10 days (in words) (Activated T cells) | basal activity / basal signaling (in words) (HEK293T/16 cells)
1 | B1 | can kill target T cells indistinguishable from wildtype caspase-9 polypeptide or D330A within 10 days | lower basal signaling; also recorded: lowered basal activity
2 | B2 |  | lower basal activity
3 | B3 |  | less basal activity than wildtype caspase-9
4 | B4 |  | less basal activity than wildtype caspase-9
5 | B5 |  | lowered basal activity
6 | B6 |  | less basal activity than wildtype caspase-9
7 | B7 |  | lower basal signaling; also recorded: lowered basal activity
8 | B8 |  | less basal activity than wildtype caspase-9
9 | B9 |  | lower basal signaling; also recorded: lowered basal activity
